Measurements published in patent publication US20260022175A1 (Chugai, published 2026).
Positions count from the first letter of the chain named.

T1: human FcγRIIb extracellular domain (human, UniProt P31994 43-217)
T1 construct: extracellular domain; also called hFcγR IIb
T1 sequence (looked up): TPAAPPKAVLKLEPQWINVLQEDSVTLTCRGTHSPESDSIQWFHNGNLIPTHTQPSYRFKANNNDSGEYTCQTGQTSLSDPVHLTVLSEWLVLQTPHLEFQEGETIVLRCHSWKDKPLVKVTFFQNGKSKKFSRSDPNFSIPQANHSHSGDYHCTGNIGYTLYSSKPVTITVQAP

T2: human FcγRIIa R extracellular domain (human, UniProt P12318 34-217)
T2 construct: extracellular domain; also called hFcγR IIa R
T2 sequence (looked up): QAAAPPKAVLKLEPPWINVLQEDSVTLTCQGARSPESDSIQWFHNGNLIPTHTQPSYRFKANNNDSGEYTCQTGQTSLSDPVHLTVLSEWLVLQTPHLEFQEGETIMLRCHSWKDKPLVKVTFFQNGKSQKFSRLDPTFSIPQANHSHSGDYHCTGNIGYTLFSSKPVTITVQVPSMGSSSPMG

T3: human FcγRIIa H extracellular domain (human, UniProt P12318 34-217)
T3 construct: extracellular domain; also called hFcγR IIa H
T3 sequence (looked up): T2 sequence (looked up) with R134H

B1: H240-Kn032/L73-k0//H240-Hl032/L73-k0 (antibody)
heavy 1: QDQLVQSGAEVKKPGASVKVSCKASGFNIKDTYIQWVRQAPGQGLEWMGRIDPLRKQTKYREKFEGRVTITADTSTNTAYMELSSLRSEDTAVYYCVRSGREFDYWGQGTLVTVSSASTKGPSVFPLAPSSKSTSGGTAALGCLVKDYFPEPVTVSWNSGALTSGVHTFPAVLQSSGLYSLSSVVTVPSSSLGTQTYICNVNHKPSNTKVDKKVEPKSCDKTHTCPPCPAPELLGGPDVFLFPPKPKDTLMISRTPEVTCVVVDVSHEDPEVKFNWYVDGVEVHNAKTKPREEQYNSTYRVVSVLTVLHQDWLNGKEYKCKVSNKALPLPEEKTISKAKGQPREPQVCTLPPSRDELTKNQVSLWCLVKGFYPSDIAVEWESNGQPENNYKTTPPVLDSDGSFFLYSKLTVDKSRWQQGNVFSCSVMHEALHNHYTQKSLSLSP
heavy 2: B1 heavy 1 with C348Y, D355C, W365S, L367A, Y406V
light: DIQMTQSPSSLSASVGDRVTITCRASQDIHKYIAWYQQKPGQAPRLLIQYTSTLQPGVPSRFSGSGSGTDYTFTISSLQPEDIATYYCLQYEQLRTFGGGTKVEIKRTVAAPSVFIFPPSDEQLKSGTASVVCLLNNFYPREAKVQWKVDNALQSGNSQESVTEQDSKDSTYSLSSTLTLSKADYEKHKVYACEVTHQGLSSPVTKSFNRGEC
notes: also called EGL-SDALIE; SDALIE
B2: 04H1637-G1m/04L1610-lam1 (antibody, human IgG1, lambda)
heavy: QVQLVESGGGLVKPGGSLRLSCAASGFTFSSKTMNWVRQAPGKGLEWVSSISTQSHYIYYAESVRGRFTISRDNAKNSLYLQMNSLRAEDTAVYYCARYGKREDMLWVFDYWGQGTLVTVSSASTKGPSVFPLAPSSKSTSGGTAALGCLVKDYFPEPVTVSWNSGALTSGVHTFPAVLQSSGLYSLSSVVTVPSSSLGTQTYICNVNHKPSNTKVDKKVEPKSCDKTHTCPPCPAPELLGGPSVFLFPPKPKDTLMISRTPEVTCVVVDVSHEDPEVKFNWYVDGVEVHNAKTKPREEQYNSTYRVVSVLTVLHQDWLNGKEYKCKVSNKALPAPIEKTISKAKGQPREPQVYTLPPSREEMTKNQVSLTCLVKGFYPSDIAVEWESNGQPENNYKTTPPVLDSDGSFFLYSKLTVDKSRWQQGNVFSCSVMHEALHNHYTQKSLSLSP
light: QSALTQPPSASGSPGQSVTISCEGPSTGVGDYNWVHWYQQHPGKAPKLMIYFTSKKPSGVPDRFSGSKSGNTASLTVSGLQAEDEADYYCQTYAAPLGPMFGGGTKLTVLGQPKAAPSVTLFPPSSEELQANKATLVCLISDFYPGAVTVAWKADSSPVKAGVETTTPSKQSNNKYAASSYLSLTPEQWKSHRSYSCQVTHEGSTVEKTVAPTECS
B3: 04H1389v373-G1m/04L1086-lam1 (antibody, human IgG1, lambda)
heavy: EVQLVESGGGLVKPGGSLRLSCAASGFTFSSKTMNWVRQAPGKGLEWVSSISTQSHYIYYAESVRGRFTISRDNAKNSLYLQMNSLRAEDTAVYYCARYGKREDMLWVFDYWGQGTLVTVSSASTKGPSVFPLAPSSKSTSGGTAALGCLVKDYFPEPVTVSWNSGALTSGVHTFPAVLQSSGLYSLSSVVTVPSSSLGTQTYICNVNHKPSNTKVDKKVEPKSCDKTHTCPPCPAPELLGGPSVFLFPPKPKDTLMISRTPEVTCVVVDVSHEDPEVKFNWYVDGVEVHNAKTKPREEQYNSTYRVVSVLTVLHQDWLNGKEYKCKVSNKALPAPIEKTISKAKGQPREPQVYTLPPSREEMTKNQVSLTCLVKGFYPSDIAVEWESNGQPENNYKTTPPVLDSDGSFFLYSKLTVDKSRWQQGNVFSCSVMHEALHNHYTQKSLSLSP
light: B2 light with S17T, E23D, W34Y, Y89F
B4: 04H1637-G1m/04L1086-lam1 (antibody, human IgG1, lambda)
heavy: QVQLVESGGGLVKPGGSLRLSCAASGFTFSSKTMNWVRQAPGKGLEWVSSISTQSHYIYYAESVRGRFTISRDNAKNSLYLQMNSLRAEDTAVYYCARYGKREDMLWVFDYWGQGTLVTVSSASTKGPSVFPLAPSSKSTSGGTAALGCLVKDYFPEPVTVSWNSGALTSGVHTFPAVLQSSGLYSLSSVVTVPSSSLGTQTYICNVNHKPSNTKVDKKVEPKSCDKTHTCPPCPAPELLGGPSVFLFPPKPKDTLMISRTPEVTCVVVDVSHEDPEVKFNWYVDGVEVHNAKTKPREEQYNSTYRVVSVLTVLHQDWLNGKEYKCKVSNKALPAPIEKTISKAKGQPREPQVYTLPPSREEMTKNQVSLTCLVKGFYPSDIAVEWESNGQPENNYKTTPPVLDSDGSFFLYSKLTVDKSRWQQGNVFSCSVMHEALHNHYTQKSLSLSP
light: B2 light with S17T, E23D, W34Y, Y89F
B5: 04H1637-G1m/04L1581-lam1 (antibody, human IgG1, lambda, V domains shown)
VH: QVQLVESGGGLVKPGGSLRLSCAASGFTFSSKTMNWVRQAPGKGLEWVSSISTQSHYIYYAESVRGRFTISRDNAKNSLYLQMNSLRAEDTAVYYCARYGKREDMLWVFDYWGQGTLVTVSS
VL: QSALTQPPSASGSPGQSVTISCQGPSTGVGDYTWVHWYQQHPGKAPKLMIYFTIKKPKGVPDRFSGSKSGNTASLTVSGLQAEDEADYYCQTYAAPLGPMFGGGTKLTVLG
B6: 04H1637-G1m/04L1594-lam1 (antibody, human IgG1, lambda, V domains shown)
VH: B5 VH
VL: B5 VL with T33N, I54S
B7: 04H1643-G1m/04L1610-lam1 (antibody, human IgG1, lambda)
heavy: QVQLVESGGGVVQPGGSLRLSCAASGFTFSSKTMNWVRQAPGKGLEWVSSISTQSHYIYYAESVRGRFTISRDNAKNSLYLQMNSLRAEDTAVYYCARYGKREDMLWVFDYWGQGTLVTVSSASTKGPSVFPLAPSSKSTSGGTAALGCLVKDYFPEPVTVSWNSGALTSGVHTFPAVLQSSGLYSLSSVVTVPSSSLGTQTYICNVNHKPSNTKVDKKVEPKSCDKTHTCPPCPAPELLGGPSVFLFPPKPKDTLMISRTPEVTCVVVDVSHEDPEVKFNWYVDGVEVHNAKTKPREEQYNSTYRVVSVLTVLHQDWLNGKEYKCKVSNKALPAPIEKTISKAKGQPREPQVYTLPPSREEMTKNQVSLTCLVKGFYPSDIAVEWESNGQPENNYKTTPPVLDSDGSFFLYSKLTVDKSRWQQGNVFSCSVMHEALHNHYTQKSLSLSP
light: B2 light
B8: 04H1654-G1m/04L1606-lam1 (antibody, human IgG1, lambda, V domains shown)
VH: B5 VH with L11V, K13Q, E62R
VL: B5 VL with T33N, I54S, K58S
B9: 04H1656-G1m/04L1606-lam1 (antibody, human IgG1, lambda, V domains shown)
VH: B5 VH with L11V, K13Q, K101A
VL: B5 VL with T33N, I54S, K58S

Experiments:
[1] = molecular target: T1, human FcγRIIb extracellular domain; test: SPR Biacore 8K+, antibody captured, FcγR as analyte, steady state affinity model
[2] = molecular target: T2, human FcγRIIa R extracellular domain; test: SPR Biacore 8K+; KD for FcγRIIb divided by KD for this FcγR;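 note: antibodies captured on an anti-human Fab kappa SA chip with soluble human FcγR ectodomains flowed over, FcγRIIb KD from steady-state fit, other FcγR KD from Langmuir model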
Procedure: (§1) The interaction between the produced antibodies and human FcγRs was analyzed using Biacore 8K+ by the method below. For the running buffer, 50 mM Na-Phosphate, 150 mM NaCl, and 0.05% Tween20 (pH 7.4) was used, and measurement was performed at 25° C. The sensor chip used was a Series S SA chip (GE Healthcare) onto which CaptureSelect Human Fab-kappa Kinetics Biotin Conjugate (Thermo Fisher Scientific) was immobilized. An antibody of interest was captured onto this chip, and each FcγR diluted with the running buffer was allowed to interact with it. The chip was regenerated using 10 mM Glycine-HCl (pH 1.5), and repeatedly used to capture antibodies and perform measurement. The dissociation constants KD (mol/L) of each antibody for FcγRs were calculated using Biacore Insight Evaluation Software, with a steady state affinity model for the dissociation constant for FcγRIIb and a 1:1 Langmuir binding model for the dissociation constants for the other FcγRs (Table 48).

[3] = molecular target: T4, human FcγRIIIa V extracellular domain (human, UniProt P08637 17-208); test: as above
T4 construct: extracellular domain; also called hFcγR IIIa V
Procedure: as §1

[4] = molecular target: T5, human FcγRIIIa F extracellular domain (human, UniProt P08637 17-208); test: as above
T5 construct: extracellular domain; also called hFcγR IIIa F
Procedure: as §1

[5] = molecular target: T3, human FcγRIIa H extracellular domain; test: as above
Procedure: as §1

[6] = molecular target: T1, human FcγRIIb extracellular domain; test: SPR Biacore 8K+; KD of G1d divided by KD of this antibody;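 note: antibodies captured on an anti-Fab-kappa streptavidin chip, soluble FcγR ectodomains flowed over, KD by steady-state fit for FcγRIIb and Langmuir kinetic model for the other receptors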
Procedure: as §1

[7] = molecular target: T2, human FcγRIIa R extracellular domain; test: as above
Procedure: as §1

[8] = molecular target: T6, human FcγRIa extracellular domain (human, UniProt P12314 16-292); test: as above
T6 construct: extracellular domain; also called hFcγR Ia; hFcγRIa
Procedure: as §1

[9] = molecular target: T4, human FcγRIIIa V extracellular domain; test: as above
Procedure: as §1

[10] = molecular target: T5, human FcγRIIIa F extracellular domain; test: as above
Procedure: as §1

[11] = molecular target: T3, human FcγRIIa H extracellular domain; test: as above
Procedure: as §1

[12] = molecular target: T2, human FcγRIIa R extracellular domain; test: SPR Biacore 8K+, antibody captured, FcγR as analyte, 1:1 Langmuir model;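 note: antibodies captured on a streptavidin chip through a biotinylated anti-human Fab kappa reagent, with FcγR extracellular domains injected in pH 7.4 phosphate buffer at 25 °C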
[13] = molecular target: T6, human FcγRIa extracellular domain; test: as above
[14] = molecular target: T4, human FcγRIIIa V extracellular domain; test: as above
[15] = molecular target: T5, human FcγRIIIa F extracellular domain; test: as above
[16] = molecular target: T3, human FcγRIIa H extracellular domain; test: as above
[17] = molecular target: T7, human CTLA4 (human); test: SPR Biacore T200, 37C, antibody captured, ADP 10 uM;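 note: antibodies held on a Protein G CM3 chip, human CTLA4 as analyte in ACES pH 7.4 buffer, rates from a global 1:1 Langmuir fit, Kd from rates or steady state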
T7 construct: also called hCTLA4; hCTLA4-His-BAP
Procedure: (§2) Biacore T200 was used to measure the binding of the generated antibodies to human CTLA4. 20 mM ACES (pH 7.4), 150 mM NaCl, 2 mM MgCl₂, 0.05% Tween 20 with ATP added to the desired concentration was used as the running buffer, and the assay was performed at 37° C. First, Protein G (CALBIOCHEM) was immobilized onto a Series S Sensor Chip CM3 (GE Healthcare), and the antibodies were captured by interacting an antibody solution prepared in an ATP-free running buffer with the chip. Next, by interacting with a human CTLA4 solution prepared in a running buffer containing ATP to the desired concentration, or a human CTLA4 solution prepared in a running buffer containing no ATP, the binding ability of the antibody to human CTLA4 in the presence or absence of ATP was evaluated. Chips were regenerated with 25 mM NaOH and 10 mM Glycine-HCl (pH 1.5), and assay was performed by repeatedly capturing antibodies. The dissociation constant of each antibody for CTLA4 was calculated using Biacore T200 Evaluation Software 2.0. Specifically, the binding rate constant ka (L/mol/s) and the dissociation rate constant kd (1/s) were calculated by global fitting of the sensorgrams obtained by the measurement, using a 1:1 Langmuir binding model. The dissociation constant KD (mol/L) was calculated from those values. Alternatively, the dissociation constant KD (mol/L) was calculated by the steady state model. In addition, the binding amount of CTLA4 per unit amount of antibody was calculated by correcting the amount of CTLA4 bound as calculated from the sensorgram obtained by the assay with the amount of antibody captured onto the chip surface.
(§3) The binding ability of the generated variants to human CTLA4 in the presence of ADP or AMP was evaluated by Biacore T200 and compared with the binding ability in the presence of ATP.

[18] = molecular target: T7, human CTLA4; test: SPR Biacore T200, 37C, antibody captured, no ATP, steady state model
Procedure: Biacore T200 was used to measure the binding of the generated antibodies to human CTLA4. 20 mM ACES (pH 7.4), 150 mM NaCl, 2 mM MgCl₂, 0.05% Tween 20 with ATP added to the desired concentration was used as the running buffer, and the assay was performed at 37° C. First, Protein G (CALBIOCHEM) was immobilized onto a Series S Sensor Chip CM3 (GE Healthcare), and the antibodies were captured by interacting an antibody solution prepared in an ATP-free running buffer with the chip. Next, by interacting with a human CTLA4 solution prepared in a running buffer containing ATP to the desired concentration, or a human CTLA4 solution prepared in a running buffer containing no ATP, the binding ability of the antibody to human CTLA4 in the presence or absence of ATP was evaluated. Chips were regenerated with 25 mM NaOH and 10 mM Glycine-HCl (pH 1.5), and assay was performed by repeatedly capturing antibodies. The dissociation constant of each antibody for CTLA4 was calculated using Biacore T200 Evaluation Software 2.0. Specifically, the binding rate constant ka (L/mol/s) and the dissociation rate constant kd (1/s) were calculated by global fitting of the sensorgrams obtained by the measurement, using a 1:1 Langmuir binding model. The dissociation constant KD (mol/L) was calculated from those values. Alternatively, the dissociation constant KD (mol/L) was calculated by the steady state model.

[19] = molecular target: T7, human CTLA4; test: SPR Biacore T200, 37C, antibody captured, ATP 10 uM
Procedure: as §2

[20] = molecular target: T7, human CTLA4; test: SPR Biacore T200, 37C, antibody captured, AMP 10 uM
Procedure: as §2, §3

[21] = molecular target: T7, human CTLA4; test: SPR Biacore T200, 37C, antibody captured, ATP 1 uM
[22] = molecular target: T7, human CTLA4; test: SPR Biacore T200, 37C, antibody captured, ATP 10 uM; remark: listed apart in the source

T5 sequence (P08637 17-208): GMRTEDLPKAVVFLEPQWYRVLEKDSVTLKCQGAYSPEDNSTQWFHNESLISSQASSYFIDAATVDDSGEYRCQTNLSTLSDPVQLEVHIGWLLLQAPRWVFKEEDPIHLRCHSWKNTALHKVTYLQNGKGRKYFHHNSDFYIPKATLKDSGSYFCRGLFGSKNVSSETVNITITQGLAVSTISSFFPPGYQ
T4 sequence (P08637 17-208 F176V limits assumed): as the sequence (P08637 17-208) above, with F160V counted along it
T7 sequence (chain, as listed by the source limits assumed): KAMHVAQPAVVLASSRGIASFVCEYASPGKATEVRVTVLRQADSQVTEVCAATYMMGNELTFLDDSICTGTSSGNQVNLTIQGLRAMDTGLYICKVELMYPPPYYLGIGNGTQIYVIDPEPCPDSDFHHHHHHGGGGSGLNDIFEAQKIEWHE
T6 sequence (P12314 16-292): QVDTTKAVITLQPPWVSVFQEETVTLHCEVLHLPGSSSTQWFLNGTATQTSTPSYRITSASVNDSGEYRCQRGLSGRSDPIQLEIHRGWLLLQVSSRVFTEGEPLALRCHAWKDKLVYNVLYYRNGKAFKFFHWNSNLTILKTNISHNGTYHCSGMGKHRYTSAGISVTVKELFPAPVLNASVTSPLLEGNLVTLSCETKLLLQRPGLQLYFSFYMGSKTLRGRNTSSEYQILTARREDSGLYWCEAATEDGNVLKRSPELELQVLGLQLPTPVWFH

Binder | Kd [17] | koff [17] | kon [17] | Kd [18] | Kd [19] | Kd [20] | koff [20] | kon [20] | Kd [21] | Kd [22] | koff [22] | kon [22] | other results
B1 | – | – | – | – | – | – | – | – | – | – | – | – | Kd [1]: 2590 nM; A/I ratio (KD for FcγRIIb divided by KD for each FcγR) [2]: 2.8; A/I ratio (KD for FcγRIIb divided by KD for each FcγR) [3]: 266; A/I ratio (KD for FcγRIIb divided by KD for each FcγR) [4]: 98.7; A/I ratio (KD for FcγRIIb divided by KD for each FcγR) [5]: 2.2; Relative value to KD between G1d and hFcgRs [6]: 3.9; Relative value to KD between G1d and hFcgRs [7]: 1.8; Relative value to KD between G1d and hFcgRs [8]: 54.3; Relative value to KD between G1d and hFcgRs [9]: 36.8; Relative value to KD between G1d and hFcgRs [10]: 113; Relative value to KD between G1d and hFcgRs [11]: 1; Kd [12]: 935 nM; Kd [13]: 0.00166 nM; Kd [14]: 9.73 nM; Kd [15]: 26.2 nM; Kd [16]: 1180 nM
B2 | 22 nM | 0.0035 s⁻¹ | 160000 M⁻¹ s⁻¹ | 3300 nM | 18 nM | 70 nM | 0.01 s⁻¹ | 150000 M⁻¹ s⁻¹ | 100 nM | 15 nM | 0.0019 s⁻¹ | 120000 M⁻¹ s⁻¹ | –
B3 | – | – | – | 5300 nM | 28 nM | – | – | – | 140 nM | – | – | – | –
B4 | – | – | – | 5300 nM | 30 nM | – | – | – | 160 nM | – | – | – | –
B5 | – | – | – | 3200 nM | 17 nM | – | – | – | 89 nM | – | – | – | –
B6 | – | – | – | 4300 nM | 28 nM | – | – | – | 140 nM | – | – | – | –
B7 | – | – | – | 2800 nM | 14 nM | – | – | – | 89 nM | – | – | – | –
B8 | 35 nM | 0.0028 s⁻¹ | 80000 M⁻¹ s⁻¹ | 6800 nM | 25 nM | 110 nM | 0.009 s⁻¹ | 81000 M⁻¹ s⁻¹ | 140 nM | 21 nM | 0.0013 s⁻¹ | 65000 M⁻¹ s⁻¹ | –
B9 | 30 nM | 0.0048 s⁻¹ | 160000 M⁻¹ s⁻¹ | 2300 nM | 19 nM | 100 nM | 0.016 s⁻¹ | 160000 M⁻¹ s⁻¹ | 95 nM | 19 nM | 0.0022 s⁻¹ | 120000 M⁻¹ s⁻¹ | –
